Values belong to the binder of their own block, whether it stands above or below them.
B3: full length human Rpn13 (hRpn13) (natural protein, UniProt Q16186 1-407, looked up)
chain: MTTSGALFPSLVPGSRGASNKYLVEFRAGKMSLKGTTVTPDKRKGLVYIQQTDDSLIHFCWKDRTSGNVEDDLIIFPDDCEFKRVPQCPSGRVYVLKFKAGSKRLFFWMQEPKTDQDEEHCRKVNEYLNNPPMPGALGASGSSGHELSALGGEGGLQSLLGNMSHSQLMQLIGPAGLGGLGGLGALTGPGLASLLGSSGPPGSSSSSSSRSQSAAVTPSSTTSSTRATPAPSAPAAASATSPSPAPSSGNGASTAASPTQPIQLSDLQSILATMNVPAGPAGGQQVDLASVLTPEIMAPILANADVQERLLPYLPSGESLPQTADEIQNTLTSPQFQQALGMFSAALASGQLGPLMCQFGLPAEAVEAANKGDVEAFAKAMQNNAKPEQKEGDTKDKKDEEEDMSLD

Legend:
hRpn2 (797-953) = target: T1, hRpn2 (797-953) (human, UniProt Q99460 797-953); test: NMR titration
T1 sequence (looked up): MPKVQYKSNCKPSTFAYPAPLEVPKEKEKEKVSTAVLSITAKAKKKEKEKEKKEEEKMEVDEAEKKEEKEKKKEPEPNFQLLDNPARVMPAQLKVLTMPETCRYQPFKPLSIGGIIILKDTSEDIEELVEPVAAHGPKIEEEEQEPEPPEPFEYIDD

[1] = target: B3; test: pull-down
ubiquitin = ubiquitin (UniProt P0CG48 1-76); test: other fluorescence titration
His-tagged Uch37 [2] = target: T2, His-tagged Uch37 (UniProt Q9Y5K5 1-329); test: NMR intermolecular NOEs
T2 sequence (looked up): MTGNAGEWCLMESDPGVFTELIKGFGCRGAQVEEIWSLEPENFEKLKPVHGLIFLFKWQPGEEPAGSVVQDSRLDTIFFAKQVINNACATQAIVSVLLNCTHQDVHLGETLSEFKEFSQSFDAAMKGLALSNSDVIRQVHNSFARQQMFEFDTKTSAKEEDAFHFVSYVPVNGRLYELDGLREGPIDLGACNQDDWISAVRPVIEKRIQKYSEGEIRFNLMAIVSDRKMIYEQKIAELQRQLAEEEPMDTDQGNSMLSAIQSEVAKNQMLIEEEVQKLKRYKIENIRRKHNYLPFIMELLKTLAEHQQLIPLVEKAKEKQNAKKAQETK

His-tagged Uch37 [3] = target: T2, His-tagged Uch37; test: pull-down

- binding result (hRpn2 (797-953)): binds
B1: hRpn13 (1-150) (domain or fragment, human, UniProt Q16186 1-150, looked up)
chain: MTTSGALFPSLVPGSRGASNKYLVEFRAGKMSLKGTTVTPDKRKGLVYIQQTDDSLIHFCWKDRTSGNVEDDLIIFPDDCEFKRVPQCPSGRVYVLKFKAGSKRLFFWMQEPKTDQDEEHCRKVNEYLNNPPMPGALGASGSSGHELSAL

- binding result [1]: binds
B2: GST-tagged hRpn2 (797-953) (domain or fragment, human, UniProt Q99460 797-953, looked up)
chain: MPKVQYKSNCKPSTFAYPAPLEVPKEKEKEKVSTAVLSITAKAKKKEKEKEKKEEEKMEVDEAEKKEEKEKKKEPEPNFQLLDNPARVMPAQLKVLTMPETCRYQPFKPLSIGGIIILKDTSEDIEELVEPVAAHGPKIEEEEQEPEPPEPFEYIDD

Binder: B3
- Kd (ubiquitin): 8 ± 0.5 µM

B4: hRpn13 (253-407) (domain or fragment, human, UniProt Q16186 253-407, looked up)
chain: STAASPTQPIQLSDLQSILATMNVPAGPAGGQQVDLASVLTPEIMAPILANADVQERLLPYLPSGESLPQTADEIQNTLTSPQFQQALGMFSAALASGQLGPLMCQFGLPAEAVEAANKGDVEAFAKAMQNNAKPEQKEGDTKDKKDEEEDMSLD
- binding result (His-tagged Uch37 [2]): binds

- binding result (His-tagged Uch37 [3]): binds
B5: GST-tagged hRpn13 (253-407) wild-type (domain or fragment, human, UniProt Q16186 253-407, looked up)
chain: STAASPTQPIQLSDLQSILATMNVPAGPAGGQQVDLASVLTPEIMAPILANADVQERLLPYLPSGESLPQTADEIQNTLTSPQFQQALGMFSAALASGQLGPLMCQFGLPAEAVEAANKGDVEAFAKAMQNNAKPEQKEGDTKDKKDEEEDMSLD

- binding result (His-tagged Uch37 [3]): binds
B6: GST-tagged hRpn13 (253-407) with alanine substitutions of Val286, Asp287, Glu295 and Ile296 (domain or fragment, human, UniProt Q16186 253-407, looked up)
chain: STAASPTQPIQLSDLQSILATMNVPAGPAGGQQAALASVLTPAAMAPILANADVQERLLPYLPSGESLPQTADEIQNTLTSPQFQQALGMFSAALASGQLGPLMCQFGLPAEAVEAANKGDVEAFAKAMQNNAKPEQKEGDTKDKKDEEEDMSLD

From PMC2887722 (Molecular cell, 2010)
